In US20210388087A1 (Chugai, published 2021):
Substitutions are numbered along the chain they refer to.

B1: H183/L072 VL S26Q (antibody, name in Kabat numbering, V domains shown)
VH: QVQLVESGGGLVQPGRSLRLSCAASGFTFSNAWMHWVRQAPGKGLEWVAQIKDKGNAYAAYYAPSVKGRFTISRDDSKNSIYLQMNSLKTEDTAVYYCHYVHYASASTVLPAFGVDAWGQGTTVTVSS
VL: DIVMTQSPLSLPVTPGEPASISCQAQQELVHMNRNTYLHWYQQKPGQAPRLLIYKVSNRFPGVPDRFSGSGSGTDFTLKISRVEAEDVGVYYCAQGTSVPFTFGQGTKLEIK
notes: Dual-Ig
B2: H183/L072 VL S26R (antibody, name in Kabat numbering, V domains shown)
VH: B1 VH
VL: B1 VL with Q26R
notes: Dual-Ig
B3: H183/L072 VL S26T (antibody, name in Kabat numbering, V domains shown)
VH: B1 VH
VL: B1 VL with Q26T
notes: Dual-Ig
B4: H183/L072 VL S26V (antibody, name in Kabat numbering, V domains shown)
VH: B1 VH
VL: B1 VL with Q26V
notes: Dual-Ig
B5: H183/L072 VL S26W (antibody, name in Kabat numbering, V domains shown)
VH: B1 VH
VL: B1 VL with Q26W
notes: Dual-Ig
B6: H183/L072 VL S26Y (antibody, name in Kabat numbering, V domains shown)
VH: B1 VH
VL: B1 VL with Q26Y
notes: Dual-Ig
B7: H183/L072 VL S52A (antibody, name in Kabat numbering, V domains shown)
VH: B1 VH
VL: B1 VL with Q26S, S57A
notes: Dual-Ig
B8: H183/L072 VL S52D (antibody, name in Kabat numbering, V domains shown)
VH: B1 VH
VL: B1 VL with Q26S, S57D
notes: Dual-Ig
B9: H183/L072 VL S52E (antibody, name in Kabat numbering, V domains shown)
VH: B1 VH
VL: B1 VL with Q26S, S57E
notes: Dual-Ig
B10: H183/L072 VL S52F (antibody, name in Kabat numbering, V domains shown)
VH: B1 VH
VL: B1 VL with Q26S, S57F
notes: Dual-Ig
B11: H183/L072 VL S52G (antibody, name in Kabat numbering, V domains shown)
VH: B1 VH
VL: B1 VL with Q26S, S57G
notes: Dual-Ig
B12: H183/L072 VL S52H (antibody, name in Kabat numbering, V domains shown)
VH: B1 VH
VL: B1 VL with Q26S, S57H
notes: Dual-Ig
B13: H183/L072 VL S52I (antibody, name in Kabat numbering, V domains shown)
VH: B1 VH
VL: B1 VL with Q26S, S57I
notes: Dual-Ig
B14: H183/L072 VL S52K (antibody, name in Kabat numbering, V domains shown)
VH: B1 VH
VL: B1 VL with Q26S, S57K
notes: Dual-Ig
B15: H183/L072 VL S52L (antibody, name in Kabat numbering, V domains shown)
VH: B1 VH
VL: B1 VL with Q26S, S57L
notes: Dual-Ig
B16: H183/L072 VL S52M (antibody, name in Kabat numbering, V domains shown)
VH: B1 VH
VL: B1 VL with Q26S, S57M
notes: Dual-Ig
B17: H183/L072 VL S52N (antibody, name in Kabat numbering, V domains shown)
VH: B1 VH
VL: B1 VL with Q26S, S57N
notes: Dual-Ig
B18: H183/L072 VL S52P (antibody, name in Kabat numbering, V domains shown)
VH: B1 VH
VL: B1 VL with Q26S, S57P
notes: Dual-Ig

target: T1, Human CD137 ECD (human); experiment: Biacore SPR, vs parent H183/L072
T1 construct: entry includes C-terminal His-tag and biotin acceptor peptide; also called human CD137 extracellular domain; 4-1BB
T1 sequence (chain, as listed by the source limits assumed): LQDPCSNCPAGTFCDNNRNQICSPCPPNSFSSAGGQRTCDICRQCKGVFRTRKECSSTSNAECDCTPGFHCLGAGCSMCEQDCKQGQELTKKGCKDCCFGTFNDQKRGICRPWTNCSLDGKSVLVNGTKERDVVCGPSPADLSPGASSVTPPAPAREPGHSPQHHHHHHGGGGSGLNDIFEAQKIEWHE

Binder | fold change of affinity
B1 | 0.7 fold
B2 | 0.3 fold
B3 | 1 fold
B4 | 0.3 fold
B5 | 0.1 fold
B6 | 0.2 fold
B7 | 1 fold
B8 | 0.8 fold
B9 | 1 fold
B10 | 1.2 fold
B11 | 0.8 fold
B12 | 1.2 fold
B13 | 1.4 fold
B14 | 1.2 fold
B15 | 1.2 fold
B16 | 1.1 fold
B17 | 1 fold
B18 | 0.3 fold
